For two substances, Kd results are on record in paper PMC12262736.

Experiment [1] concerns the target MadS (Enterococcus faecalis). Description: MST.
The target of experiment [2] is LiaS (Enterococcus faecalis). Kind of experiment: MST.

With MadR (natural protein), the equilibrium dissociation constant (Kd) in experiment [1] was found to be 8.08 µM; in experiment [2], 5.02 µM.

As to LiaR (natural protein), the Kd in experiment [1] was determined as 25.7 µM; in experiment [2] it was 2.42 µM.

As a reminder, the Kd is the equilibrium constant for the complex coming apart. A low value points to a tighter complex.
